Drawing on the supplement of paper PMC12042874, this text covers amyloid nucleation score for 140 substances.

± gives the uncertainty stated by the source.

The series is described as follows: amyloid nucleation score (Sup35N fusion, yeast selection) (log enrichment); library NNK2; higher = more nucleation; inactive = no reads after selection. The method in brief:
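Random libraries were run with three technical output replicates. In each, psi-negative yeast expressing Sup35N fused to peptides of 20 random codons were induced 24 hours with 100 μM copper sulfate and grown 7 days at 30°C on medium lacking adenine and uracil, and input and output plasmid inserts were Illumina-sequenced. The nucleation score is the DiMSum log enrichment of output over input reads, centred on the mode score of non-aggregating sequences, and sequences under 100 input reads were excluded.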
Regarding GGERYHPYYDAA, the amyloid nucleation score was found to be 0.268 ± 0.54.
The value for NAPLCFKHKSRL was -0.995 ± 0.44.
The value for AGMPCKFIRARSSPYFRALC was 0.495 ± 0.62.
The result for CFMFWLCITNGIRPQCPLAS reads 0.016 ± 0.65; that for LRNRMAERDLYLYAICSAGL, 0.331 ± 0.55; that for YIYRNITRLQKSCSIIISGR, -1.88 ± 0.64.
The substance LLGQLKFLFLDVFLWLYVCS had an amyloid nucleation score of 1.56 ± 0.22.
The value for TLGLHGED was 0.23 ± 0.31; that for ATMVSPTSQLAPNMYNASLT was 5.97 ± 0.085; that for WYCMNSGASMLCGLRQARFL was -0.715 ± 0.76.
In turn, SRHRVLFFYKFVCLIWV returned an amyloid nucleation score of -0.8 ± 0.74.
The result for CLFSTCTRCCLSNGFNAITR reads “inactive”; that for RFEYLFLEEYKLLAMRYLRT, -0.986 ± 0.3.
The value for HYAVTYLLGYSVGRVLYLWK was -0.509 ± 0.79; that for MLALLCVNNWEGCYWYVGSV was 6.827 ± 0.063; that for SKNVFKMGLDTSH was -1.22 ± 0.32.
Regarding LLEYCCYFYRN, the amyloid nucleation score turned out to be 3.57 ± 0.12.
The result for ILIREPLHDIGNVNLLVRSS reads -0.359 ± 0.48; that for MFGGQELCACLDKEGRTESG, 5.09 ± 0.08; that for KMLCYMYVVTHNVTLRHRLY, 0.196 ± 0.42.
The result for LITINLSV reads 8.427 ± 0.049; that for IPRFRLYANCRMFNRV, 0.056 ± 0.39; that for EGLIDCCIH, “inactive”.
The value for YVSWCCGRFISYPVC was 0.321 ± 0.19; that for FITHKDYLFAGQ was -1.16 ± 0.76; that for AIMYFVTCMKILMFVGNYVQ was -0.118 ± 0.27.
TSAENRLMMAEARKYCVRSF showed an amyloid nucleation score of 3.66 ± 0.087.
The result for LLYCCLRWMDSIQGLRPAFE reads 1.1 ± 0.61; that for SKCVWIKDQNFFQVDTNESI, 1.73 ± 0.34.
The result for INIRLFFHDFTRMGSELIGY reads 0.318 ± 0.8.
The result for NWHGSIFFIW reads 5.708 ± 0.049; that for AFNDIYIMKMHIFGKSIVLL, “inactive”; that for RRIFYHEYHMRDSIH, 1.7 ± 0.1.
VIGCAQWFYFADMRGMPRNQ came in with an amyloid nucleation score of 4.95 ± 0.076.
The result for ARNSVKHSFFQVRRLHGSWD reads 0.367 ± 0.38; that for LEVYVLFTVTYAVMRMNMDG, 0.302 ± 0.56.
The result for NWWRD reads -0.071 ± 0.43; that for FCPRGFTLSSKFLCLNSLRM, -0.344 ± 0.33.
The value for SFNNVKLDGRSF was -0.59 ± 0.64; that for MIKYYVSHNPRWHSRWCNSQ was 0.762 ± 0.43; that for KCRHFCRCETCTRYDPVHIL was 1 ± 0.53.
MVAFNTFSD: the amyloid nucleation score entry was “inactive”.
The value for AMFVLVGFEFY was 1.47 ± 0.11; that for GSYDLEGGLLHGLTTTSYNR was -0.235 ± 0.55; that for STNRWQHIL was -0.382 ± 0.48.
The result for QNRKERYVYIFRAEWFPWCG reads -1.13 ± 0.76; that for IDDVEGPVAPFGIATVQDQP, 1.51 ± 0.46.
The result for CIYRHAFVLFTKPLNFGRVR reads -0.166 ± 0.49.
IHLWICSISYNAVSIRFTSY had an amyloid nucleation score of 1.42 ± 0.097.
The result for CGPPVIWVLLCKLGMFWTVS reads -0.555 ± 0.55.
YICVFLDSYLGHMYRPHWRV had an amyloid nucleation score of 1.91 ± 0.13.
The value for GLFSSGRFVSADSM was -0.368 ± 0.54.
The result for AFMCWSYRS reads 6.393 ± 0.043; that for LGSRGSRSIAESFAGKIRI, -0.226 ± 1.1.
The value for HNRYYGVIYVSLKICKLAFR was 6.476 ± 0.027; that for VVEFNVLHDDLEVQDKT was -1.16 ± 0.56.
For the substance RNSYALNINEM, the amyloid nucleation score is -0.4 ± 0.38.
Consider DKGEEPELIV, for which the amyloid nucleation score was determined as 0.742 ± 0.16.
The value for KRKFRMWSQNIFLKVGNILA was -1.47 ± 0.55.
Regarding NGFHCG, the amyloid nucleation score entry is “inactive”.
The substance KGRYSGEGEIAFLQRVVGSG displayed an amyloid nucleation score of 0.434 ± 0.41.
Take RTGAMPSR: the amyloid nucleation score worked out at 0.518 ± 0.51.
The result for FTRYLTFNFRLETYYRGSHG reads 1.44 ± 0.18.
The result for ILSFM reads -1.27 ± 1; that for YMDMWGR, -0.81 ± 0.41.
The value for PFQSNNSEVDGSYYMSVRC was -0.705 ± 0.39; that for TSGMNDITR was -0.093 ± 0.23.
Turning to LEAISCKWYTLYVVYSCNSW, the amyloid nucleation score was -0.877 ± 1.
The result for RYRWARLHGVLVHDWLLLIW reads “inactive”.
The value for CILDI was -0.089 ± 1.1; that for FNGSGARGSGRMYAILYKMS was 0.422 ± 0.56.
The value for MLVPFRVESMSGTRTCKVTV was 4.96 ± 0.08.
As to FVSLTLCCYGEGDVPLREVQ, the amyloid nucleation score is 1.9 ± 0.14.
In turn, HLHPGVYLKPFDGCGIINGI had an amyloid nucleation score of 0.213 ± 0.8.
Take EAWRNLYFGLSRRHRRYGSL: the amyloid nucleation score came out at 1.49 ± 0.18.
In turn, SCYLVYEFLLTGVSWWQSRL yielded an amyloid nucleation score of 0.794 ± 0.48.
As for VFKFMNMTYEYRAGKGITVH, the amyloid nucleation score entry was “inactive”.
For the substance TSVCM, the amyloid nucleation score amounted to 3.89 ± 0.1.
In the case of WDSDRSYVLSLFADVPLAKC, the amyloid nucleation score came out at 0.035 ± 1.
The value for PVCCFAHMIIHYNCLGQKAY was 2.08 ± 0.12.
The value for AYTFSNSVNVCCVGVLEVIV was 5.8 ± 0.077.
In turn, GVRLDFYGNHFLWPAVSRGR yielded an amyloid nucleation score of 3.63 ± 0.099.
The result for GDVYCNGLGISFVYFRGSRS reads “inactive”.
The value for AHEYEPNFFRLCYKVRLWNA was -0.244 ± 0.22; that for TVKNRA was 0.694 ± 0.51; that for QFRPLDCCLLNFDDSRIYCL was 4.88 ± 0.074.
Substance RNRAENV registered an amyloid nucleation score of -0.36 ± 0.76.
The value for MESINSVSSSNIVHRFRRGV was 5.58 ± 0.077.
Substance KLQSCCIF showed an amyloid nucleation score of 6.23 ± 0.084.
With MHRLRYKATVFGLNNDDMPP, the amyloid nucleation score came to 0.841 ± 0.44.
In turn, APSHPSTVFLYICLLFENKP returned an amyloid nucleation score of -0.128 ± 0.55.
In turn, MLVRIYLYRKRSYMVRSALM came in with an amyloid nucleation score of 1.52 ± 0.12.
The result for PCGSCMSQNKSIG reads 0.167 ± 0.31.
The result for IMLLNLYKDGSGGRRSKLLQ reads -0.09 ± 0.33; that for KHSRMYLR, 1.49 ± 0.17; that for TDKCVTTFNCYNLHRR, 1.62 ± 0.15.
The result for VIGAGCIEKQRTVEAGGCRG reads 1.23 ± 0.35; that for RRAGNIVLECSG, 3.68 ± 0.11.
With FHIQTRCMCGGMRYIFYVWY, the amyloid nucleation score was 0.432 ± 0.8.
The result for QGGMMWGLLSYCEVLDDSDV reads -0.08 ± 1; that for VFEAIMVYSFRRYFPPYGAF, 2.62 ± 0.098; that for EGQSGAILGLMRGTSWVESA, 0.984 ± 0.32.
For the substance FGNVMMTDAV, the amyloid nucleation score is -0.631 ± 0.46.
The value for RWGMRYIMDWY was 0.007 ± 1.1; that for VCDRFWFSLDLWLFIRTFRF was -0.679 ± 1.1.
In the case of RVLRLVSVLLFDVILSVE, the amyloid nucleation score was 4.85 ± 0.085.
The result for SSASFSVHQYCYLLNPSF reads 1.45 ± 0.28; that for SMRCLIMCATDCRNDMGRLW, 5.362 ± 0.039; that for IGNRQVDFISDGAG, 0.034 ± 1.1.
The result for MENLRNMAYSNC reads -1.66 ± 0.61.
The value for NFVLGKTSSVVCSHQSAALT was 0.505 ± 0.18; that for TTQDATLIVNSCNTFTLQVY was -0.389 ± 0.29; that for SCQFWSTFCTSC was 0.378 ± 0.74.
For VDRWDGSVHCSIGGNFYCSG, the amyloid nucleation score is -0.545 ± 0.54.
The result for IDSDKEAFRTFLWTLDMYRL reads -0.536 ± 1.
The value for SWVVL was -0.563 ± 0.79.
Consider VGHSIEALELTPIVVRYTYL, for which the amyloid nucleation score was -0.341 ± 0.45.
The value for VGFISDNYYWYNPKVNGIWV was -0.834 ± 0.27; that for SNFPWPMERPEFSDDSVFWA was -0.313 ± 0.76.
Consider GLVLWRRHFKAAASVSMQSW, for which the amyloid nucleation score came out at 0.216 ± 0.4.
The result for HPSLVAGDWRFTGPLFCSLG reads 4.02 ± 0.071; that for GLFCSLLCLVGAVSEKT, 5.26 ± 0.086.
The result for WLSTVVL reads “inactive”; that for LWFLYSAVTFTR, -0.856 ± 0.76; that for NILNFMDS, -0.603 ± 1.1.
The result for WHGPYYCGGCRTDIVCWNRA reads 5.888 ± 0.05.
As for FPGWGIDPTYKVKVRWMNRA, the amyloid nucleation score amounted to 0.566 ± 0.33.
The value for SVIIQLSYTRGYWLLQA was -0.845 ± 0.45.
The value for LWAFHLNFVLSAVCLRRKNL was “inactive”; that for LKQDKGITGEVVGVRILGS was 0.22 ± 0.32.
With NSLVLFFSVGVLRL, the amyloid nucleation score came out at 1.37 ± 0.21.
The value for RCGFLWCRHFPATSELGCVL was 0.752 ± 0.8; that for VTICIGVAFYVFCTSTSNCM was 5.242 ± 0.039.
The result for CFIKVAVNWQL reads 8.826 ± 0.057.
LHQGKPYITLALYRFLHGSR gave an amyloid nucleation score of -1.15 ± 1.1.
The result for ERFPDCCLFNLDVFVSVLNI reads 5.022 ± 0.027; that for FKNQGDLQTCLLFD, -0.012 ± 0.79.
SACRMNWEVGGIGLSVPLCG had an amyloid nucleation score of 0.421 ± 0.2.
The result for VYPVSPIMKGV reads 0.163 ± 0.49; that for PYMPGRMWSRILSVCSVCCV, 1.48 ± 0.58.
